The record followed here is article PMC11232276.

Broadly, the Kd is a measure of binding affinity in units of concentration. A low value points to a tighter complex.

Assay [1] has as its target wildtype (WT) α-synuclein fibrils (human) (UniProt P37840). The assay is described as follows: flow-induced dispersion analysis.
Assay [2] has as its target α-synuclein oligomers (human). In words: flow-induced dispersion analysis.
For assay [3], the target named is wildtype (WT) α-synuclein fibrils (human) (UniProt P37840). In words: SPR.
For assay [4] the target is unchanged. In words: native gel or EMSA.

Turning to “BRICHOS-Alexa488 (rh Bri2 BRICHOS R221E labelled with Alexa-488) (from UniProt Q9Y287 113-231) (domain or fragment)”, the Kd in assay [1] stood at 2.3 µM; in assay [2], 0.0782 µM.
With “recombinant human (rh) Bri2 BRICHOS R221E monomer (from UniProt Q9Y287 113-231) (domain or fragment)”, in assay [3], the apparent KD, strong binding of the two-phase model stood at 0.022 µM and the apparent KD, weak binding of the two-phase model was found to be 350 µM. This substance also yielded a percent of soluble, unbound BRICHOS in assay [4] of 90.6%.
